# Positions count from the first letter of the chain named. Read-outs that look alike come from different tables or passages of the source.
# T1: hB7H3 antigen protein (human, UniProt Q5ZPR3 29-461)
# T1 construct: prepared in the laboratory
# T1 sequence: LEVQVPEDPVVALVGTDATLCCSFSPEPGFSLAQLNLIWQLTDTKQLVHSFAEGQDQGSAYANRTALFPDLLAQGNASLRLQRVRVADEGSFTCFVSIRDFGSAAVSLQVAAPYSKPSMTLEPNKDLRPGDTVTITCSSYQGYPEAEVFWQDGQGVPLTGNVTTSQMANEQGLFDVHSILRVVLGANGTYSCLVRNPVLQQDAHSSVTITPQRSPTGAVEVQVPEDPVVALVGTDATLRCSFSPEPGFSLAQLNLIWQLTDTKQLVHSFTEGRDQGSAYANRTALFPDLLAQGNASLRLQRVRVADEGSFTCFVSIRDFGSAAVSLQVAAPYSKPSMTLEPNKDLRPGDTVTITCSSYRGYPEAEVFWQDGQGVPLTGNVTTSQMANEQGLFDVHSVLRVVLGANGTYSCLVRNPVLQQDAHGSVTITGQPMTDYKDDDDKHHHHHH
# T2: B7H3 on the recombinant cell line CT26-B7H3 (UniProt Q5ZPR3 29-534, limits assumed)
# T2 construct: whole, on cells
# T2 sequence (looked up): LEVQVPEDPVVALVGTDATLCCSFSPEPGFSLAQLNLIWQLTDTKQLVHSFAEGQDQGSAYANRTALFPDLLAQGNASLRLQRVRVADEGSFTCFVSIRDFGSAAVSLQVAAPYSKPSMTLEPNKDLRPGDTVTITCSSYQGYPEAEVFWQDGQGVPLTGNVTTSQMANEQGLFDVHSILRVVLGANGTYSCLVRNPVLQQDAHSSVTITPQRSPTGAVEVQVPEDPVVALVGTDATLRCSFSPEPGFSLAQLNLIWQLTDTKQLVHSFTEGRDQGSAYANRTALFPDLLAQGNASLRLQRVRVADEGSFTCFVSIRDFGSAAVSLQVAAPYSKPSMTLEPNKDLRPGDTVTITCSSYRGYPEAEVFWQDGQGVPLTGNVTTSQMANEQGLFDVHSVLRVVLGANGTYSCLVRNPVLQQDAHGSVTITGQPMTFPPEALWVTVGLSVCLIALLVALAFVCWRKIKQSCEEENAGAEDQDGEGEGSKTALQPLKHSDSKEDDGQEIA
# T3: CEA on MKN45 cells (UniProt P06731 35-685)
# T3 construct: whole, on cells
# T3 sequence (looked up): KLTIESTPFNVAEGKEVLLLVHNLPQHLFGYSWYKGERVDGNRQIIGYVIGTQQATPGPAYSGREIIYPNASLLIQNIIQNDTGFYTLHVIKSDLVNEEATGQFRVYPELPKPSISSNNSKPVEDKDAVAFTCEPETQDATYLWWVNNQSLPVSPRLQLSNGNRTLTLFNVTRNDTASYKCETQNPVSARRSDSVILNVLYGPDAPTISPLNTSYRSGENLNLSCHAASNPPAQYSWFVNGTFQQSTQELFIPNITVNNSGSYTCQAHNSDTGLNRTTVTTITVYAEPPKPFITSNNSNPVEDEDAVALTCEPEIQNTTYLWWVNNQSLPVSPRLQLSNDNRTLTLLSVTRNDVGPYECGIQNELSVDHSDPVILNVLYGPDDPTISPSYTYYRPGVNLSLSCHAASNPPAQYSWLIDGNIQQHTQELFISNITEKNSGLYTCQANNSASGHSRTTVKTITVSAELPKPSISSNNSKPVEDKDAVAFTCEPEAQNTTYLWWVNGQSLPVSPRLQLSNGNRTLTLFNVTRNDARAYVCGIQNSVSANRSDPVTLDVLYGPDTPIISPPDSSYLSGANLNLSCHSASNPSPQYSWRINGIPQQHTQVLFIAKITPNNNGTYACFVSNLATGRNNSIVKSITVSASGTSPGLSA
# T4: human TIGIT-his (human, UniProt Q495A1 22-141, limits assumed)
# T4 construct: bought; also called hTIGIT
# T4 sequence (looked up): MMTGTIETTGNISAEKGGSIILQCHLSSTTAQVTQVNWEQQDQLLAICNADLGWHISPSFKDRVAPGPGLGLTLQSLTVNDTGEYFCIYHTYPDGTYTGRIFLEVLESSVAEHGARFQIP
# B1: F0 (antibody, human IgG1, lambda)
# heavy: not shown
# light: DTVVTQEPSFSVSPGGTVTLTCGLSSGSVSTSHYPSWYQQTPGQAPRMLIYNTNTRSSGVPDRFSGSILGNKAALTITGAQADDESDYYCAIHVDRDIWVFGGGTKLTVLGQPKAAPSVTLFPPSSEELQANKATLVCLISDFYPGAVTVAWKADSSPVKAGVETTTPSKQSNNKYAASSYLSLTPEQWKSHRSYSCQVTHEGSTVEKTVAPTECS
# B2: N4 (antibody)
# heavy: not shown
# light: EIVLTQSPGTLSLSPGERATLSCRASQNINNRFLAWYQQRPGQAPRLLIYAASSRATGVPDRFSGSGSGTDFTLTISRLEAEDFAMYHCQQYGSFPRTFGQGTMVDIKQGSPPCFLRFPRPVRVVSGAEAELKCVVLGEPPPVVVWEKGGQQLAASERLSFPADGAEHGLLLTAALPTDAGVYVCRARNAAGEAYAAAAVTVLEPP
# B3: N7 (antibody)
# heavy: not shown
# light: B2 light with C114E, V182C
# B4: N8 (antibody)
# heavy: not shown
# light: B2 light with C114E, C134S, V182C, C185S
# B5: I2 (antibody)
# heavy: not shown
# light: DIQMTQSPSSLSASVGDRVTITCRASQSISNNLNWYQQKPGKAPKLLIYYTSRFHSGVPSRFSGSGSGTDFTFTISSLQPEDIATYYCQQEHTLPYTFGQGTKLEIKSGAPRFLTRPKSYTVSVGKDASLSSQIVGNPTPQVSWEKDQQPVAAGARFRLAQDGDLYRLKILDLALGDSGQYVSRARNAIGEAFACVGLQVDAEA
# B6: I3 (antibody)
# heavy: not shown
# light: B5 light with K118L, S119A, Y120F, T121V, S129T, Q148K, A152T, A174Q, G176S, V196L
# B7: HJ-11 (bispecific antibody, human IgG1, kappa, L234A L235A)
# heavy 1: not shown
# light 1: DIQMTQSPSSVSASVGDRVTITCRASQDIANYLSWYQQKPGKSPKLLIYGTSNLEVGVPSRFSGSRSGTDFTLTISSLQPEDFATYYCLQDKEFPRTFGGGTKVEIKRTVASSGCPRFLTRPKASVVSVGKDATLSCQIVGNPFPQVSWEKDKQPVTAGVRFRLAQDGDLYRLKILDLQLSDSGQYVCRARNAHGEAFACLGLQVDAEA
# heavy 2: EVQLVQSGAEVKKPGSSVKVSCKASGYTFSNYLIEWVRQAPGQGLEWIGVIDPGVGDTNYNENFKGRATLTADKSTSTAYIELSSLRSEDTAVYYCAREDNTGTAFDYWGQGTTVTVSSASTKGPSVFPLAPSSKSTSGGTAALGCLVKDYFPEPVTVSWNSGALTSGVHTFPAVLQSSGLYSLSSVVTVPSSSLGTQTYICNVNHKPSNTKVDKKVEPKSCDKTHTCPPCPAPEAAGGPSVFLFPPKPKDTLMISRTPEVTCVVVDVSHEDPEVKFNWYVDGVEVHNAKTKPREEQYNSTYRVVSVLTVLHQDWLNGKEYKCKVSNKALPAPIEKTISKAKGQPREPQVCTLPPSREEMTKNQVSLSCAVKGFYPSDIAVEWESNGQPENNYKTTPPVLDSDGSFFLVSKLTVDKSRWQQGNVFSCSVMHEALHNHYTQKSLSLSPGK
# light 2: SIVMTQTPLSLSVTPGQPASISCKASQSVSSDVTWYLQKPGQSPQLLIYYVSEHYTGVPDRFSGSGYGTDFTLKISRVEAEDVGVYYCQQHHRFPLTFGQGTKLEIKRTVAAPSVFIFPPSDEQLKSGTASVVCLLNNFYPREAKVQWKVDNALQSGNSQESVTEQDSKDSTYSLSSTLTLSKADYEKHKVYACEVTHQGLSSPVTKSFNRGEC
# B8: h1831K (antibody, human IgG1, kappa, V domains shown)
# VH: QVQLVQSGAEVKKPGASVKVSCKASGYTFTSYWMHWVRQAPGQGLEWMGRITPSSGFAMYNEKFKNRVTMTRDTSTSTVYMELSSLRSEDTAVYYCARGGSSYDYFDYWGQGTTVTVSS
# VL: DIVLTQSPASLAVSPGQRATITCRASESVSIHGTHLMHWYQQKPGQPPKLLIYAASKLESGVPARFSGSGSGTDFTLTINPVEAEDTANYYCQQSFEDPLTFGQGTKLEIKR
# notes: also called P-IgG1; PDL1 monoclonal antibody
# B9: I6 (antibody)
# heavy: not shown
# light: DIQMTQSPSSLSASVGDRVTITCRASQSISNNLNWYQQKPGKAPKLLIYYTSRFHSGVPSRFSGSGSGTDFTFTISSLQPEDIATYYCQQEHTLPYTFGQGTKLEIKSGAPRFLTRPLAFVVSVGKDATLSSQIVGNPTPQVSWEKDQLPVTAGARFRLAQDGDLYRLKILDLTLSDSGQYVSRARNAIGEAFACVGLEVGAEA
# B10: I4 (antibody)
# heavy: not shown
# light: B9 light
# B11: I7 (antibody)
# heavy: not shown
# light: B9 light with A119S, F120Y, T129S, T174Q
# B12: I5 (antibody)
# heavy: not shown
# light: B9 light
# B13: h1708-04 (antibody, human IgG1, kappa, V domains shown)
# VH: EVQLVQSGAEVKKPGASVKVSCKASGYTFTNYWMHWVRQAPGQGLEWMGRIDPDSTGSKYNEKFKTRVTMTRDTSTSTVYMELSSLRSEDTAVYYCAREGAYGYYFDYWGQGTLVTVSS
# VL: DIQMTQSPSSLSASVGDRVTITCRASENIYSYLAWYQQKPGKSPKLLIYNARTLAEGVPSRFSGSGSGTDFTLTISSLQPEDFATYYCQYHSGSPLPFGGGTKVEIKR
# notes: also called T-IgG1; TIGIT monoclonal antibody
# B14: N3 (antibody)
# heavy: not shown
# light: EIVLTQSPGTLSLSPGERATLSCRASQNINNRFLAWYQQRPGQAPRLLIYAASSRATGVPDRFSGSGSGTDFTLTISRLEAEDFAMYHCQQYGSFPRTFGQGTMVDIKSGAPRFLTRPKAFVVSVGKDATLSCQIVGNPTPQVSWEKDQQPVAAGARFRLAQDGDLYRLTILDLALGDSGQYVCRARNAIGEAFAAVGLQVDAEA
# B15: N6 (antibody)
# heavy: not shown
# light: B14 light with A111C, C133S, C184S
# Tests used:
# hB7H3 antigen protein = molecular target: T1, hB7H3 antigen protein; assay: SPR Biacore T200, antibody captured on Protein A chip
# Procedure: The affinity of a test antibody for an antigen protein was determined by using a Biacore T200 (GE) instrument. […] The data obtained from the experiment was fitted with BIAevaluation version 4.1, GE software using a (1:1) Langmuir model to obtain affinity values.
# [1] = molecular target: T2, B7H3 on the recombinant cell line …; assay: FACS, CT26-B7H3 cells
# CEA on MKN45 cells [2] = molecular target: T3, CEA on MKN45 cells; assay: FACS, MKN45 cells
# CEA on MKN45 cells [3] = molecular target: T3, CEA on MKN45 cells; assay: FACS, MKN45 cells; remark: listed apart in the source
# hNGF = molecular target: T5, hNGF (human, UniProt P01138 122-241, limits assumed); assay: ELISA
# T5 construct: bought
# hIL-5 = molecular target: T6, hIL-5 (human, UniProt P05113 20-134); assay: ELISA
# T6 construct: bought
# Procedure: (§1) For an antibody targeting a soluble protein, the binding activity of the antibody against the soluble protein was detected by ELISA. […] After the blocking was completed, the blocking solution was discarded; and the plate was washed 3 times with a PBST buffer (pH 7.4, PBS containing 0.1% tween-20). 100 μL of the antibody solution diluted in a gradient was added to each well, and the mixture was incubated at 37° C. for 1 h. After the incubation was completed, the plate was washed 3 times with PBST.
# hTSLP = molecular target: T7, hTSLP (human, UniProt Q969D9 29-159); assay: ELISA
# T7 construct: bought
# Procedure: as §1
# human PDL1-his = molecular target: T8, human PDL1-his (human, UniProt Q9NZQ7 19-239); assay: SPR Biacore T200, antibody captured on Protein A chip
# T8 construct: bought; also called hPDL1
# Procedure: (§2) After dissociation was completed for each cycle, the biosensor chip was washed with 10 mM Gly-HCl at pH 1.5 for regeneration. Data were fitted using a 1:1 model.
# human TIGIT-his = molecular target: T4, human TIGIT-his; assay: as above
# Procedure: as §2
# T5 sequence (P01138 122-241 limits assumed): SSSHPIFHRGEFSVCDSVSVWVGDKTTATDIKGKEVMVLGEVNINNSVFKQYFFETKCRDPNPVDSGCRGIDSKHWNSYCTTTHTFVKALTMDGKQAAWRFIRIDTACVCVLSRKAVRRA
# T8 sequence (Q9NZQ7 19-239 limits assumed): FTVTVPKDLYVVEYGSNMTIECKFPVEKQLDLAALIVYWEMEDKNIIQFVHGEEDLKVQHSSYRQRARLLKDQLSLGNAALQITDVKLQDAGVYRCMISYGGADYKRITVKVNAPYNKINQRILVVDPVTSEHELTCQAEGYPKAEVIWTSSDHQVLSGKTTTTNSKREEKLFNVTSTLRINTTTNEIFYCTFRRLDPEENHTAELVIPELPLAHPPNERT
binder,measurement,setting,value
B1,Kd,hB7H3 antigen protein,13.1 nM
same,koff,hB7H3 antigen protein,0.00206 s⁻¹
same,kon,hB7H3 antigen protein,157000 M⁻¹ s⁻¹
same,EC50,[1],1.29 nM
B2,EC50,CEA on MKN45 cells [2],5.93 nM
same,EC50,CEA on MKN45 cells [3],4.6 nM
B3,EC50,CEA on MKN45 cells [3],2.8 nM
B4,EC50,CEA on MKN45 cells [3],2.6 nM
B5,EC50,hNGF,3.19 nM
B6,EC50,hNGF,2.99 nM
B7,EC50,hIL-5,9.46 nM
same,EC50,hTSLP,3 nM
B8,Kd,human PDL1-his,0.0417 nM
same,koff,human PDL1-his,8.67e-05 s⁻¹
same,kon,human PDL1-his,2.08e+06 M⁻¹ s⁻¹
B9,EC50,hNGF,4.12 nM
B10,EC50,hNGF,4.13 nM
B11,EC50,hNGF,3.15 nM
B12,EC50,hNGF,3.59 nM
B13,Kd,human TIGIT-his,0.0651 nM
same,koff,human TIGIT-his,0.000139 s⁻¹
same,kon,human TIGIT-his,2.14e+06 M⁻¹ s⁻¹
B14,EC50,CEA on MKN45 cells [2],6.45 nM
same,EC50,CEA on MKN45 cells [3],4.5 nM
B15,EC50,CEA on MKN45 cells [3],8.4 nM

# Reference: patent publication US20240392020A1 (JIANGSU HENGRUI PHARMACEUTICALS, published 2024)
